Source: PMC4486954, “Highly homologous proteins exert opposite biological activities by using different interaction interfaces” (Scientific Reports, 2015)
cellulose membrane = C-terminus attached to a cellulose membrane (CelluSpots array) through an amide bond

T1: HLT-iASPP Ank-SH3 (human, UniProt Q8WUF5 603-828)
T1 construct: iASPP (human), four ankyrin repeats and SH3 domain, residues 603-828, Swiss-Prot Q8WUF5; Detected on the arrays by its His tag (anti His HRP antibody); source: E. coli HMS 174, purified (Nickel Sepharose, size exclusion chromatography); not shown: HLT (His tag, lipoyl domain, TEV protease cleavage site), N-terminal, kept
T1 sequence (looked up): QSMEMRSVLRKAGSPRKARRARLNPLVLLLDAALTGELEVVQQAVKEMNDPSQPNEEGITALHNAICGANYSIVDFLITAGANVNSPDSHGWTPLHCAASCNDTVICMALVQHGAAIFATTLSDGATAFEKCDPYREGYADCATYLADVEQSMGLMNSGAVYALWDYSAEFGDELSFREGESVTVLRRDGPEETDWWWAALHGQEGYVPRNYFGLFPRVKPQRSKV

T2: iASPP Ank-SH3 (Homo sapiens, UniProt Q8WUF5)
T2 construct: (2) iASPP Ank-SH3 603-828; HLT tag (His tag + lipoyl domain + TEV site) (N, cleaved yes); made in house; host or cells: E. coli HMS 174 (Novagen)
T2 sequence (Q8WUF5 603-828): T1 sequence (looked up)

B1: iASPP Pro array peptide 540-554 (spot D3) (peptide)
peptide: Ac-KKQYQQIISRLFHRH-{cellulose membrane}
modifications: also: C-terminus bound to cellulose membrane via amide
notes: iASPP (human) residues 540-554; source: synthetic peptide on CelluSpots array (INTAVIS)
B2: iASPP Pro array peptide 60-74 (spot A14) (peptide)
peptide: Ac-QAGPPSRPPRYSSSS-{cellulose membrane}
modifications: also: C-terminus bound to cellulose membrane via amide
notes: iASPP (human) residues 60-74; source: synthetic peptide on CelluSpots array (INTAVIS)
B3: iASPP Pro array peptide 388-402 (spot C7) (peptide)
peptide: Ac-SRAMLPGSPLFTRAP-{cellulose membrane (amide bond)}
modifications: also: C-terminus bound to cellulose membrane via amide
notes: iASPP (human) residues 388-402; source: synthetic peptide on CelluSpots array (INTAVIS)
B4: iASPP Pro array peptide 356-370 (spot C3) (peptide)
peptide: Ac-PSSPQPRGAPRQRPI-{cellulose membrane (amide bond)}
modifications: also: C-terminus bound to cellulose membrane via amide
notes: iASPP (human) residues 356-370; source: synthetic peptide on CelluSpots array (INTAVIS)
B5: iASPP Pro array peptide 156-170 (spot B2) (peptide)
peptide: Ac-APSPRPGPGPLRQQG-{cellulose membrane (amide bond)}
modifications: also: C-terminus bound to cellulose membrane via amide
notes: iASPP (human) residues 156-170; source: synthetic peptide on CelluSpots array (INTAVIS)
B6: iASPP Pro array peptide 196-210 (spot B7) (peptide)
peptide: Ac-FFPERGPSPRPPATA-{cellulose membrane (amide bond)}
modifications: also: C-terminus bound to cellulose membrane via amide
notes: iASPP (human) residues 196-210; source: synthetic peptide on CelluSpots array (INTAVIS)
B7: iASPP Pro array peptide 68-82 (spot A15) (peptide)
peptide: Ac-PRYSSSSIPEPFGSR-{cellulose membrane}
modifications: also: C-terminus bound to cellulose membrane via amide
notes: iASPP (human) residues 68-82; source: synthetic peptide on CelluSpots array (INTAVIS)
B8: iASPP Pro array peptide 548-562 (spot D4) (peptide)
peptide: Ac-SRLFHRHGGPGPGGP-{cellulose membrane}
modifications: also: C-terminus bound to cellulose membrane via amide
notes: iASPP (human) residues 548-562; source: synthetic peptide on CelluSpots array (INTAVIS)
B9: iASPP Pro array peptide 348-362 (spot C2) (peptide)
peptide: Ac-PVSRIPMPPSSPQPR-{cellulose membrane (amide bond)}
modifications: also: C-terminus bound to cellulose membrane via amide
notes: iASPP (human) residues 348-362; source: synthetic peptide on CelluSpots array (INTAVIS)
B10: iASPP Pro array peptide 324-338 (spot B23) (peptide)
peptide: Ac-SDAGSYRRSLGSAGP-{cellulose membrane (amide bond)}
modifications: also: C-terminus bound to cellulose membrane via amide
notes: iASPP (human) residues 324-338; source: synthetic peptide on CelluSpots array (INTAVIS)
B11: iASPP Pro array peptide 380-394 (spot C6) (peptide)
peptide: Ac-NAFWEHGASRAMLPG-{cellulose membrane (amide bond)}
modifications: also: C-terminus bound to cellulose membrane via amide
notes: iASPP (human) residues 380-394; source: synthetic peptide on CelluSpots array (INTAVIS)
B12: iASPP Pro array peptide 148-162 (spot B1) (peptide)
peptide: Ac-GAGSSLGRAPSPRPG-{cellulose membrane (amide bond)}
modifications: also: C-terminus bound to cellulose membrane via amide
notes: iASPP (human) residues 148-162; source: synthetic peptide on CelluSpots array (INTAVIS)
B13: iASPP Pro array peptide 340-354 (spot C1) (peptide)
peptide: Ac-GTLPRSWQPVSRIPM-{cellulose membrane (amide bond)}
modifications: also: C-terminus bound to cellulose membrane via amide
notes: iASPP (human) residues 340-354; source: synthetic peptide on CelluSpots array (INTAVIS)
B14: iASPP Pro array peptide 132-146 (spot A23) (peptide)
peptide: Ac-YGSLDRATSPRPRAF-{cellulose membrane (amide bond)}
modifications: also: C-terminus bound to cellulose membrane via amide
notes: iASPP (human) residues 132-146; source: synthetic peptide on CelluSpots array (INTAVIS)
B15: iASPP Pro array peptide 484-498 (spot C19) (peptide)
peptide: Ac-VARPLSPTRLQPALP-{cellulose membrane}
modifications: also: C-terminus bound to cellulose membrane via amide
notes: iASPP (human) residues 484-498; source: synthetic peptide on CelluSpots array (INTAVIS)
B16: iASPP Pro array peptide 308-322 (spot B21) (peptide)
peptide: Ac-TLPRNYKVSPLASDR-{cellulose membrane (amide bond)}
modifications: also: C-terminus bound to cellulose membrane via amide
notes: iASPP (human) residues 308-322; source: synthetic peptide on CelluSpots array (INTAVIS)
B17: iASPP Pro array peptide 396-410 (spot C8) (peptide)
peptide: Ac-PLFTRAPPPKLQPQP-{cellulose membrane (amide bond)}
modifications: also: C-terminus bound to cellulose membrane via amide
notes: iASPP (human) residues 396-410; source: synthetic peptide on CelluSpots array (INTAVIS)
B18: iASPP Pro array peptide 172-186 (spot B4) (peptide)
peptide: Ac-PTPFDFLGRAGSPRG-{cellulose membrane (amide bond)}
modifications: also: C-terminus bound to cellulose membrane via amide
notes: iASPP (human) residues 172-186; source: synthetic peptide on CelluSpots array (INTAVIS)
B19: iASPP Pro array peptide 604-618 (spot D11) (peptide)
peptide: Ac-SMEMRSVLRKAGSPR-{cellulose membrane}
modifications: also: C-terminus bound to cellulose membrane via amide
notes: iASPP (human) residues 604-618; also called iASPP 604-618; source: synthetic peptide on CelluSpots array (INTAVIS)

target: T1, HLT-iASPP Ank-SH3; assay: peptide or protein array; CelluSpots array of 79 partly overlapping 15-residue iASPP Pro peptides on cellulose; 5 uM HLT-iASPP Ank-SH3 in 20 mM phosphate pH 7.0, ionic strength 150 mM, 5 mM βME, 10% glycerol, 2.5% skimmed milk; 4 °C overnight; detected with anti His HRP antibody; conditions: both partners purified

| binding result | Molecule |
| --- | --- |
| binds | B1 |
| binds | B2 |
| binds | B3 |
| binds | B4 |
| binds | B5 |
| binds | B6 |
| binds | B7 |
| binds | B8 |
| binds | B9 |
| binds | B10 |
| binds | B11 |
| binds | B12 |
| binds | B13 |
| binds | B14 |
| binds | B15 |
| binds | B16 |
| binds | B17 |
| binds | B18 |
| binds | B19 |

target: T2, iASPP Ank-SH3; assay: Fluorescence anisotropy binding of fluorescein-labeled iASPP Pro derived peptides to iASPP Ank-SH3; conditions: 250 μM iASPP Ank-SH3 titrated into 100 nM fluorescein-labeled peptide, 10 °C, 20 mM Hepes pH 7.3, ionic strength 50 mM
Method: Binding of the iASPP Pro-derived peptides to iASPP Ank-SH3 was measured by fluorescence anisotropy using a PerkinElmer Life Sciences LS-50b spectrofluorimeter equipped with a Hamilton microlab M dispenser. Titration of iASPP Ank-SH3 into iASPP Pro derived fluorescein-labeled (FL) peptides was performed at 10 °C in 20 mM Hepes buffer, pH 7.3, 43 mM NaCl (total ionic strength = 50 mM), 10% glycerol and 5 mM β-mercaptoethanol. The excitation wavelength was set at 480 nm and the emission measured at 530 nm. The labeled peptide, dissolved in 1 ml buffer to a final concentration of 100 nM, was placed in the cuvette. 250 μM iASPP Ank-SH3 was placed in the dispenser and aliquots of 10–20 μl were added at 1.5 min intervals. The solution was then stirred for 30 sec, and the fluorescence and anisotropy were measured. Data were analyzed using the program Origin8 (OriginLab) and were fit to 1:1 binding model:
[drawing 1] (R- measured fluorescence anisotropy, R0- anisotropy value corresponding to the free peptide, ∆R- amplitude of the fluorescence anisotropy change, [Protein]- protein concentration, Kd- dissociation constant).

| binding to iASPP Ank-SH3 (in words) | Molecule |
| --- | --- |
| no binding | FFPERGPSPRPPATA [iASPP 196-210, iASPP Pro derived peptide, residues 196-210] |
| no binding | SDAGSYRRSLGSAGP [iASPP 324-338, iASPP Pro derived peptide, residues 324-338] |
| no binding | PRYSSSSIPEPFGSR [iASPP 68-82, iASPP Pro derived peptide, residues 68-82] |
| too weak to quantify | YGSLDRATSPRPRAF [iASPP 132-146, iASPP Pro derived peptide, residues 132-146] |
| too weak to quantify | VARPLSPTRLQPALP [iASPP 484-498, iASPP Pro derived peptide, residues 484-498] |
| too weak to quantify | PTPFDFLGRAGSPRG [iASPP 172-186, iASPP Pro derived peptide, residues 172-186] |
| no binding | TLPRNYKVSPLASDR [iASPP 308-322, iASPP Pro derived peptide, residues 308-322] |
| no binding | APSPRPGPGPLRQQG [iASPP 156-170, iASPP Pro derived peptide, residues 156-170] |
| too weak to quantify | PLFTRAPPPKLQPQP [iASPP 396-410, iASPP Pro derived peptide, residues 396-410] |
